This is an account of results in the Human Domainome abundance scans (Beltran et al. 2025).

First the molecules themselves.
B1: Serine/threonine-protein kinase LATS1, residues 98 to 141; numbered along this chain, O95835 (parent)
chain: TSEVNPQMLQDLQAAGFDEDMVIQALQKTNNRSIEAAIEFISKM

± gives the uncertainty stated by the source.

The series covers variants of B1. Briefly: abundance fitness (aPCA) (normalised: wild type 0, dead -1); higher = more abundant; growth selection in yeast, the domain comes from the species named. Conditions: Homo sapiens.
As to TSEVNPQMLQDLQAAGFDEDMVIQALQKPNNRSIEAAIEFISKM [T29P], the abundance fitness is -0.524 ± 0.1.
For the variant TSEVNPQMLQDLQAAGFDEDMVIQALQKMNNRSIEAAIEFISKM [T29M], the abundance fitness is -0.919 ± 0.1.
In the case of TSEVNPQMLQDLQAAGFDEDMVIQALQKWNNRSIEAAIEFISKM [T29W] it was -1.09 ± 0.083; in that of TSEVNPQMLQDLQAAGFDEDMVIQALQKNNNRSIEAAIEFISKM [T29N], -0.414 ± 0.1; in that of TSEVNPQMLQDLQAAGFDEDMVIQALQKQNNRSIEAAIEFISKM [T29Q], -0.563 ± 0.071.
To TSEVNPQMLQDLQAAGFDEDMVIQALQKLNNRSIEAAIEFISKM [T29L] belongs -0.954 ± 0.071; to TSEVNPQMLQDLQAAGFDEDMVIQALQKSNNRSIEAAIEFISKM [T29S], -0.463 ± 0.04; to TSEVNPQMLQDLQAAGFDEDMVIQALQKVNNRSIEAAIEFISKM [T29V], -0.191 ± 0.039.
TSEVNPQMLQDLQAAGFDEDMVIQALQKRNNRSIEAAIEFISKM [T29R]: the abundance fitness was -0.715 ± 0.041.
TSEVNPQMLQDLQAAGFDEDMVIQALQKTNNMSIEAAIEFISKM [R32M]: the abundance fitness was -0.107 ± 0.05.
Regarding TSEVNPQMLQDLQAAGFDEDMVIQALQKTNNASIEAAIEFISKM [R32A], the abundance fitness was 0.089 ± 0.039.
As for TSEVNPQMLQDLQAAGFDEDMVIQALQKTNNWSIEAAIEFISKM [R32W], the abundance fitness is -0.484 ± 0.043.
Regarding TSEVNPQMLQDLQAAGFDEDMVIQALQKTNNCSIEAAIEFISKM [R32C], the abundance fitness came to 0.007 ± 0.068.
TSEVNPQMLQDLQAAGFDEDMVIQALQKTNNPSIEAAIEFISKM [R32P]: the abundance fitness was -0.434 ± 0.043.
To TSEVNPQMLQDLQAAGFDEDMVIQALQKTNNESIEAAIEFISKM [R32E] belongs 0.095 ± 0.042.
In the case of TSEVNPQMLQDLQAAGFDEDMVIQALQKTNNTSIEAAIEFISKM [R32T] it was -0.004 ± 0.042; in that of TSEVNPQMLQDLQAAGFDEDMVIQALQKTNNKSIEAAIEFISKM [R32K], 0.238 ± 0.1; in that of TSEVNPQMLQDLQAAGFDEDMVIQALQKTNNVSIEAAIEFISKM [R32V], 0.017 ± 0.036.
Consider TSEVNPQMLQDLQAAGFDEDMVIQALQKTNNYSIEAAIEFISKM [R32Y], for which the abundance fitness was -0.222 ± 0.18.
TSEVNPQMLQDLQAAGFDEDMVIQALQKTNNGSIEAAIEFISKM [R32G]: the abundance fitness was -0.185 ± 0.032.
Turning to TSEVNPQMLQDLQAAGFDEDMVIQALQKTNNHSIEAAIEFISKM [R32H], the abundance fitness turned out to be 0.045 ± 0.078.
In the case of TSEVNPQMLQDLQAAGFDEDMVIQALQKTNNDSIEAAIEFISKM [R32D] it was -0.26 ± 0.042; in that of TSEVNPQMLQDLQAAGFDEDMVIQALQKTNKRSIEAAIEFISKM [N31K], -0.699 ± 0.12; in that of TSEVNPQMLQDLQAAGFDEDMVIQALQKTNRRSIEAAIEFISKM [N31R], -0.845 ± 0.046.
In the case of TSEVNPQMLQDLQAAGFDEDMVIQALQKTNPRSIEAAIEFISKM [N31P] it was -0.459 ± 0.048; in that of TSEVNPQMLQDLQAAGFDEDMVIQALQKTNQRSIEAAIEFISKM [N31Q], -0.63 ± 0.089; in that of TSEVNPQMLQDLQAAGFDEDMVIQALQKTNGRSIEAAIEFISKM [N31G], -0.155 ± 0.03.
In the case of TSEVNPQMLQDLQAAGFDEDMVIQALQKTNIRSIEAAIEFISKM [N31I] it was -0.577 ± 0.21; in that of TSEVNPQMLQDLQAAGFDEDMVIQALQKTNCRSIEAAIEFISKM [N31C], -0.139 ± 0.041; in that of TSEVNPQMLQDLQAAGFDEDMVIQALQKTNSRSIEAAIEFISKM [N31S], 0.049 ± 0.038.
Regarding TSEVNPQMLQDLQAAGFDEDMVIQALQKTNLRSIEAAIEFISKM [N31L], the abundance fitness is -0.75 ± 0.049.
In the case of TSEVNPQMLQDLQAAGFDEDMVIQALQKTNWRSIEAAIEFISKM [N31W], the abundance fitness is -0.557 ± 0.046.
Regarding TSEVNPQMLQDLQAAGFDEDMVIQALQKTNERSIEAAIEFISKM [N31E], the abundance fitness is -0.253 ± 0.042.
To TSEVNPQMLQDLQAAGFDEDMVIQALQKTNMRSIEAAIEFISKM [N31M] belongs -0.484 ± 0.063; to TSEVNPQMLQDLQAAGFDEDMVIQALQKTNARSIEAAIEFISKM [N31A], -0.416 ± 0.035.
On to TSEVNPQMLQDLQAAGFDEDMVIQALQKTNDRSIEAAIEFISKM [N31D], for which the abundance fitness was -0.506 ± 0.081.
With TSEVNPQMLQDLQAAGFDEDMVIQALQKTNTRSIEAAIEFISKM [N31T], the abundance fitness was -0.645 ± 0.069.
With TSEVNPQMLQDLQAAGFDEDMVIQALQKTNNREIEAAIEFISKM [S33E], the abundance fitness was -0.665 ± 0.086.
Consider TSEVNPQMLQDLQAAGFDEDMVIQALQKTNNRDIEAAIEFISKM [S33D], for which the abundance fitness is -0.4 ± 0.05.
TSEVNPQMLQDLQAAGFDEDMVIQALQKTNNRFIEAAIEFISKM [S33F]: the abundance fitness is -0.628 ± 0.16.
In the case of TSEVNPQMLQDLQAAGFDEDMVIQALQKTNNRCIEAAIEFISKM [S33C], the abundance fitness is -0.467 ± 0.09.
In the case of TSEVNPQMLQDLQAAGFDEDMVIQALQKTNNRAIEAAIEFISKM [S33A] it was -0.797 ± 0.055; in that of TSEVNPQMLQDLQAAGFDEDMVIQALQKTDNRSIEAAIEFISKM [N30D], -0.093 ± 0.055; in that of TSEVNPQMLQDLQAAGFDEDMVIQALQKTKNRSIEAAIEFISKM [N30K], -0.021 ± 0.042.
As for TSEVNPQMLQDLQAAGFDEDMVIQALQKTMNRSIEAAIEFISKM [N30M], the abundance fitness was -0.553 ± 0.065.
Consider TSEVNPQMLQDLQAAGFDEDMVIQALQKTHNRSIEAAIEFISKM [N30H], for which the abundance fitness was -0.206 ± 0.24.
As for TSEVNPQMLQDLQAAGFDEDMVIQALQKTSNRSIEAAIEFISKM [N30S], the abundance fitness was -0.107 ± 0.042.
In the case of TSEVNPQMLQDLQAAGFDEDMVIQALQKTQNRSIEAAIEFISKM [N30Q] it was -0.055 ± 0.047; in that of TSEVNPQMLQDLQAAGFDEDMVIQALQKTENRSIEAAIEFISKM [N30E], 0.015 ± 0.04; in that of TSEVNPQMLQDLQAAGFDEDMVIQALQKTRNRSIEAAIEFISKM [N30R], -0.103 ± 0.033.
In the case of TSEVNPQMLQDLQAAGFDEDMVIQALQKTVNRSIEAAIEFISKM [N30V] it was -1.1 ± 0.069.
To TSEVNPQMLQDLQAAGFDEDMVIQALQKTPNRSIEAAIEFISKM [N30P] belongs -0.529 ± 0.061; to TSEVNPQMLQDLQAAGFDEDMVIQALQKTLNRSIEAAIEFISKM [N30L], -1.14 ± 0.097.
As to TSEVNPQMLQDLQAAGFDEDMVIQALQKTANRSIEAAIEFISKM [N30A], the abundance fitness is -0.193 ± 0.033.
On to TSEVNPQMLQDLQAAGFDEDMVIQALQKTWNRSIEAAIEFISKM [N30W], for which the abundance fitness was -1.07 ± 0.086.
For TSEVNPQMLQDLQAAGFDEDMVIQALQKTGNRSIEAAIEFISKM [N30G], the abundance fitness is 0.045 ± 0.032.
For the variant TSEVNPQMLQDLQAAGFDEDMVIQALQKTTNRSIEAAIEFISKM [N30T], the abundance fitness was -0.533 ± 0.055.
With TSEVNPQMLQDLQAAGFDEDMVIQALQKTFNRSIEAAIEFISKM [N30F], the abundance fitness is -1.05 ± 0.15.
